Laboratory results: publication PMC10165143 (Computational and Structural Biotechnology Journal, 2023)
Where no end group is shown, it is not given here. [ ]: non-standard residue; d: D form. The star is where a group is joined. FITC = O=C1OC2(c3ccc(O)cc3Oc3cc(O)ccc32)c2ccc(NC(=S)*)cc21; pT = C[C@@H](OP(=O)(O)O)[C@H](N)C(=O)O

What was measured:
[1] = molecular target: T1, Bmh1 (S. cerevisiae 14-3-3 isoform) (S. cerevisiae, UniProt P29311 1-267); experiment: fluorescence polarisation
T1 sequence (looked up): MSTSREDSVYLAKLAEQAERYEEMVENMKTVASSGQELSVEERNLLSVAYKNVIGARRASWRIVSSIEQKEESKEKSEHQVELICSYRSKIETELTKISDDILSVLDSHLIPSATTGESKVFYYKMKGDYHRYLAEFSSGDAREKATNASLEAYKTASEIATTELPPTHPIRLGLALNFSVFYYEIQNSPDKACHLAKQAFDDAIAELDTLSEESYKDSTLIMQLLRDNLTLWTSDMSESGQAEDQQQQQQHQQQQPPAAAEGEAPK

[2] = molecular target: T2, Bmh2 (S. cerevisiae 14-3-3 isoform) (S. cerevisiae, UniProt P34730 1-273); experiment: fluorescence polarisation
T2 sequence (looked up): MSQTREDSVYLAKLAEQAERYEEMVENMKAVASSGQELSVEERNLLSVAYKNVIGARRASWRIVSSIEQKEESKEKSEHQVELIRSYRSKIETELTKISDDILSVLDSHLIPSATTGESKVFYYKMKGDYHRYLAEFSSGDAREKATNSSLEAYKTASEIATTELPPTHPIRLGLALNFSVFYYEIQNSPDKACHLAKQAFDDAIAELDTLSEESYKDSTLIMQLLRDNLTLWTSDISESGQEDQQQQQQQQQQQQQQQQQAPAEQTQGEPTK

Kd [1]: 4 µM | Kd [2]: 3.4 µM
Binder: {FITC}-RRCF[pT]LLFP [FITC-labeled synthetic Trk1 peptide (FITC-RRCFpTLLFP) with phosphorylated Thr900]
